The assay has as its target recombinant human β-Klotho (UniProt Q86Z14 53-996, biotinylated in the AlphaScreen assays (site not stated)). Description: binding EC50.

recombinant human β-Klotho, sequence (Q86Z14 53-996): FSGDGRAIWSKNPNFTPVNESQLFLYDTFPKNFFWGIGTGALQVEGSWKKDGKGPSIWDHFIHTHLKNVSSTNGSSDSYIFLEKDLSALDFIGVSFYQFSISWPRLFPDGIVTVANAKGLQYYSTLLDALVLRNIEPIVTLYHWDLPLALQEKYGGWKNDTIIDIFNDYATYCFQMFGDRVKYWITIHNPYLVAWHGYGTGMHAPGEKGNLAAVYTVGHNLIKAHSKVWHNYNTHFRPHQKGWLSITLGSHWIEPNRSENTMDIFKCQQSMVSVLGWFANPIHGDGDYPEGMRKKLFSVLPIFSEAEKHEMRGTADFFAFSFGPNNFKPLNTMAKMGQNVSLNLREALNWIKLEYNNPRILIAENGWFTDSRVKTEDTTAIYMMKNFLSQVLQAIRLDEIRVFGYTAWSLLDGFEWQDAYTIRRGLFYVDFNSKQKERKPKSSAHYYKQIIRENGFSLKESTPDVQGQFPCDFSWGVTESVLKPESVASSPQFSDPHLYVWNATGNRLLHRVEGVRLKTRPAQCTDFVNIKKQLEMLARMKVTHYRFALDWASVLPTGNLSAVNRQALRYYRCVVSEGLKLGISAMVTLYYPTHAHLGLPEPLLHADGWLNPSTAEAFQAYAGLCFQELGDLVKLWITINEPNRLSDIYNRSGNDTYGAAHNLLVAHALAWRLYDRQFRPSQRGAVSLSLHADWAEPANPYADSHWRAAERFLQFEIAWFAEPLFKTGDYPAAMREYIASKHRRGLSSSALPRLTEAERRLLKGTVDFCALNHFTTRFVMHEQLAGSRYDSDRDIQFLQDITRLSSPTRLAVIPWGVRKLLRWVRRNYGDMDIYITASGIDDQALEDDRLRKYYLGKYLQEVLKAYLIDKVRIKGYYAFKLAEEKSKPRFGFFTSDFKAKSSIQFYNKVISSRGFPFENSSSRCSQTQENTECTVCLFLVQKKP

B1: β-Klotho walked dimer BK_R1c_D24 (designed binder)
chain: CRPDEFPCRSTGRCVPRRWVCDGVDDCGDNSDESLAHCQTPTCQPDEFTCSSGRCIPQPWLCDGLNDCGDGSDEPPAHCSAPASEPPGSL
With B1, the EC50 stood at 8.52 nM.

B2: β-Klotho walked dimer BK_R1c_D05 (designed binder)
chain: CAAGQFRCHNSDTCLPGAWVCDGDNDCGDNSDEASCQKRTCHSFNQFECRNGQCIPLHLVCDGVPDCGDNSDETDCGDSHILPFSTPGPST
B2: the EC50 stood at 0.01 nM.

B3: β-Klotho walked dimer BK_R1c_D18 (designed binder)
chain: CPPDEFQCRGTKKCLPLAWVCDGDNDCEDDSDEESCASAVHTCQSNEFRCRSGRCIPQHWLCDGLNDCGDGSDESQQCSAPASEPPGSL
As for B3, the EC50 was 21.5 nM.

B4: β-Klotho walked dimer BK_R1c_D22 (designed binder)
chain: CQPDEFTCSSGRCIPQPWLCDGLNDCGDGSDEPPAHCSAPASEPPGSLCRPDEFRCKNGRCIPQTWVCDGEDDCQDSSDETDCESTVRT
Take B4: the EC50 was determined as 99 nM.

These data come from US20130197191A1 (published 2013).
